According to patent US20250262210A1 (TRUSTEES OF COLUMBIA UNIVERSITY IN THE CITY OF NEW YORK, published 2025):
Changes are numbered by the printed parent chain. Values belong to the binder of their own block, whether it stands above or below them.

Columns and labels:
LZTR1 R810W-FLAG = biological target: T1, LZTR1 R810W-FLAG (human, UniProt Q8N653 1-840); test: IP/MS, LZTR1 R810W-FLAG, U87
T1 construct: Stably expressed in U87 cells by lentivirus; also called LZTR1-FLAG-R810W; LZTR1 RW; not shown: FLAG tag
T1 sequence (looked up): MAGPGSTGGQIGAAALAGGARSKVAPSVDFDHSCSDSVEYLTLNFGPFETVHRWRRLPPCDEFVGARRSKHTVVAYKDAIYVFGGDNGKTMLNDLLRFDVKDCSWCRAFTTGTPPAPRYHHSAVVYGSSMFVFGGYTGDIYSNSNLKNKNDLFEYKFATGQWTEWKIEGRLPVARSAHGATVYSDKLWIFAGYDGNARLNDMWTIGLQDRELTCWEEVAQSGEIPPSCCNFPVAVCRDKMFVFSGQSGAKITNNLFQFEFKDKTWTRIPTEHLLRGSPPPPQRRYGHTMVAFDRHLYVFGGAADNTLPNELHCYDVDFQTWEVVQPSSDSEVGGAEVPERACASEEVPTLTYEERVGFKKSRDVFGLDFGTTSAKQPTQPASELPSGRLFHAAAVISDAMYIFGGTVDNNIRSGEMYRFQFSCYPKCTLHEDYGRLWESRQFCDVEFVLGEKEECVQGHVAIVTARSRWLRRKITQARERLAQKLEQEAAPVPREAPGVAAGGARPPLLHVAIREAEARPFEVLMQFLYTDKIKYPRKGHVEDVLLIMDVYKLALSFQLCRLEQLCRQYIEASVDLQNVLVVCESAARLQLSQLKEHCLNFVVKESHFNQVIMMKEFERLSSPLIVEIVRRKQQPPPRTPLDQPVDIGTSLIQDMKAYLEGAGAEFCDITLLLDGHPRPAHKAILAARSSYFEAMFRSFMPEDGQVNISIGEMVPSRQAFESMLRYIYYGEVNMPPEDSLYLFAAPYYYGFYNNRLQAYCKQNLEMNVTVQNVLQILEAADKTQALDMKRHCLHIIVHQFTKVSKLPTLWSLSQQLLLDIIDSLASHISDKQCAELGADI
Outline: (§1)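 Read-out: spectral counts from LC-MS/MS (Orbitrap Fusion) after MaxQuant identification. Variable modifications were Met oxidation, protein N-terminal acetylation and N/Q deamidation.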

LZTR1-FLAG = biological target: T2, LZTR1-FLAG (human, UniProt Q8N653 1-840); test: IP/MS, LZTR1 wild type-FLAG, U87
T2 construct: Expressed in HEK 293T, HeLa or U87 cells; used as cell lysate; also called LZTR1 wild type-FLAG; LZTR1 WT; not shown: FLAG tag at the C-terminus
T2 sequence (looked up): T1 sequence (looked up) with W810R
Outline: as §1

binding result (LZTR1 R810W-FLAG): binds
binding result (LZTR1-FLAG): binds
B1: CY P51A1 (other, human, UniProt Q16850 1-509, looked up)
chain: MAAAAGMLLLGLLQAGGSVLGQAMEKVTGGNLLSMLLIACAFTLSLVYLIRLAAGHLVQLPAGVKSPPYIFSPIPFLGHAIAFGKSPIEFLENAYEKYGPVFSFTMVGKTFTYLLGSDAAALLFNSKNEDLNAEDVYSRLTTPVFGKGVAYDVPNPVFLEQKKMLKSGLNIAHFKQHVSIIEKETKEYFESWGESGEKNVFEALSELIILTASHCLHGKEIRSQLNEKVAQLYADLDGGFSHAAWLLPGWLPLPSFRRRDRAHREIKDIFYKAIQKRRQSQEKIDDILQTLLDATYKDGRPLTDDEVAGMLIGLLLAGQHTSSTTSAWMGFFLARDKTLQKKCYLEQKTVCGENLPPLTYDQLKDLNLLDRCIKETLRLRPPIMIMMRMARTPQTVAGYTIPPGHQVCVSPTVNQRLKDSWVERLDFNPDRYLQDNPASGEKFAYVPFGAGRHRCIGENFAYVQIKTIWSTMLRLYEFDLIDGYFPTVNYTTMIHTPENPVIRYKRRSK
notes: Printed as CY P51A1; read as CYP51A1

binding result (LZTR1 R810W-FLAG): binds
binding result (LZTR1-FLAG): binds
B2: FADS1 (other, human, UniProt O60427 1-444, looked up)
chain: MAPDPVAAETAAQGPTPRYFTWDEVAQRSGCEERWLVIDRKVYNISEFTRRHPGGSRVISHYAGQDATDPFVAFHINKGLVKKYMNSLLIGELSPEQPSFEPTKNKELTDEFRELRATVERMGLMKANHVFFLLYLLHILLLDGAAWLTLWVFGTSFLPFLLCAVLLSAVQAQAGWLQHDFGHLSVFSTSKWNHLLHHFVIGHLKGAPASWWNHMHFQHHAKPNCFRKDPDINMHPFFFALGKILSVELGKQKKKYMPYNHQHKYFFLIGPPALLPLYFQWYIFYFVIQRKKWVDLAWMITFYVRFFLTYVPLLGLKAFLGLFFIVRFLESNWFVWVTQMNHIPMHIDHDRNMDWVSTQLQATCNVHKSAFNDWFSGHLNFQIEHHLFPTMPRHNYHKVAPLVQSLCAKHGIEYQSKPLLSAFADIIHSLKESGQLWLDAYLHQ

binding result (LZTR1 R810W-FLAG): binds
binding result (LZTR1-FLAG): binds
B3: ELAC2 (other, human, UniProt Q9BQ52 17-826, looked up)
chain: SQGRTISQAPARRERPRKDPLRHLRTREKRGPSGCSGGPNTVYLQVVAAGSRDSGAALYVFSEFNRYLFNCGEGVQRLMQEHKLKVARLDNIFLTRMHWSNVGGLSGMILTLKETGLPKCVLSGPPQLEKYLEAIKIFSGPLKGIELAVRPHSAPEYEDETMTVYQIPIHSEQRRGKHQPWQSPERPLSRLSPERSSDSESNENEPHLPHGVSQRRGVRDSSLVVAFICKLHLKRGNFLVLKAKEMGLPVGTAAIAPIIAAVKDGKSITHEGREILAEELCTPPDPGAAFVVVECPDESFIQPICENATFQRYQGKADAPVALVVHMAPASVLVDSRYQQWMERFGPDTQHLVLNENCASVHNLRSHKIQTQLNLIHPDIFPLLTSFRCKKEGPTLSVPMVQGECLLKYQLRPRREWQRDAIITCNPEEFIVEALQLPNFQQSVQEYRRSAQDGPAPAEKRSQYPEIIFLGTGSAIPMKIRNVSATLVNISPDTSLLLDCGEGTFGQLCRHYGDQVDRVLGTLAAVFVSHLHADHHTGLPSILLQRERALASLGKPLHPLLVVAPNQLKAWLQQYHNQCQEVLHHISMIPAKCLQEGAEISSPAVERLISSLLRTCDLEEFQTCLVRHCKHAFGCALVHTSGWKVVYSGDTMPCEALVRMGKDATLLIHEATLEDGLEEEAVEKTHSTTSQAISVGMRMNAEFIMLNHFSQRYAKVPLFSPNFSEKVGVAFDHMKVCFGDFPTMPKLIPPLKALFAGDIEEMEERREKRELRQVRAALLSRELAGGLEDGEPQQKRAHTEEPQAKKVRAQ

binding result (LZTR1 R810W-FLAG): binds
binding result (LZTR1-FLAG): binds
B4: GBE1 (other, human, UniProt Q04446 2-702, looked up)
chain: AAPMTPAARPEDYEAALNAALADVPELARLLEIDPYLKPYAVDFQRRYKQFSQILKNIGENEGGIDKFSRGYESFGVHRCADGGLYCKEWAPGAEGVFLTGDFNGWNPFSYPYKKLDYGKWELYIPPKQNKSVLVPHGSKLKVVITSKSGEILYRISPWAKYVVREGDNVNYDWIHWDPEHSYEFKHSRPKKPRSLRIYESHVGISSHEGKVASYKHFTCNVLPRIKGLGYNCIQLMAIMEHAYYASFGYQITSFFAASSRYGTPEELQELVDTAHSMGIIVLLDVVHSHASKNSADGLNMFDGTDSCYFHSGPRGTHDLWDSRLFAYSSWEILRFLLSNIRWWLEEYRFDGFRFDGVTSMLYHHHGVGQGFSGDYSEYFGLQVDEDALTYLMLANHLVHTLCPDSITIAEDVSGMPALCSPISQGGGGFDYRLAMAIPDKWIQLLKEFKDEDWNMGDIVYTLTNRRYLEKCIAYAESHDQALVGDKSLAFWLMDAEMYTNMSVLTPFTPVIDRGIQLHKMIRLITHGLGGEGYLNFMGNEFGHPEWLDFPRKGNNESYHYARRQFHLTDDDLLRYKFLNNFDRDMNRLEERYGWLAAPQAYVSEKHEGNKIIAFERAGLLFIFNFHPSKSYTDYRVGTALPGKFKIVLDSDAAEYGGHQRLDHSTDFFSEAFEHNGRPYSLLVYIPSRVALILQNVDLPN

binding result (LZTR1 R810W-FLAG): binds
binding result (LZTR1-FLAG): binds
B5: DHX32 (other, human, UniProt Q7L7V1 1-743, looked up)
chain: MEEEGLECPNSSSEKRYFPESLDSSDGDEEEVLACEDLELNPFDGLPYSSRYYKLLKEREDLPIWKEKYSFMENLLQNQIVIVSGDAKCGKSAQVPQWCAEYCLSIHYQHGGVICTQVHKQTVVQLALRVADEMDVNIGHEVGYVIPFENCCTNETILRYCTDDMLQREMMSNPFLGSYGVIILDDIHERSIATDVLLGLLKDVLLARPELKLIINSSPHLISKLNSYYGNVPVIEVKNKHPVEVVYLSEAQKDSFESILRLIFEIHHSGEKGDIVVFLACEQDIEKVCETVYQGSNLNPDLGELVVVPLYPKEKCSLFKPLDETEKRCQVYQRRVVLTTSSGEFLIWSNSVRFVIDVGVERRKVYNPRIRANSLVMQPISQSQAEIRKQILGSSSSGKFFCLYTEEFASKDMTPLKPAEMQEANLTSMVLFMKRIDIAGLGHCDFMNRPAPESLMQALEDLDYLAALDNDGNLSEFGIIMSEFPLDPQLSKSILASCEFDCVDEVLTIAAMVTAPNCFSHVPHGAEEAALTCWKTFLHPEGDHFTLISIYKAYQDTTLNSSSEYCVEKWCRDYFLNCSALRMADVIRAELLEIIKRIELPYAEPAFGSKENTLNIKKALLSGYFMQIARDVDGSGNYLMLTHKQVAQLHPLSGYSITKKMPEWVLFHKFSISENNYIRITSEISPELFMQLVPQYYFSNLPPSESKDILQQVVDHLSPVSTMNKEQQMCETCPETEQRCTLQ

binding result (LZTR1 R810W-FLAG): binds
binding result (LZTR1-FLAG): binds
B6: GLE1 (other, human, UniProt Q53GS7 1-698, looked up)
chain: MPSEGRCWETLKALRSSDKGRLCYYRDWLLRREDVLEECMSLPKLSSYSGWVVEHVLPHMQENQPLSETSPSSTSASALDQPSFVPKSPDASSAFSPASPATPNGTKGKDESQHTESMVLQSSRGIKVEGCVRMYELVHRMKGTEGLRLWQEEQERKVQALSEMASEQLKRFDEWKELKQHKEFQDLREVMEKSSREALGHQEKLKAEHRHRAKILNLKLREAEQQRVKQAEQERLRKEEGQIRLRALYALQEEMLQLSQQLDASEQHKALLKVDLAAFQTRGNQLCSLISGIIRASSESSYPTAESQAEAERALREMRDLLMNLGQEITRACEDKRRQDEEEAQVKLQEAQMQQGPEAHKEPPAPSQGPGGKQNEDLQVKVQDITMQWYQQLQDASMQCVLTFEGLTNSKDSQAKKIKMDLQKAATIPVSQISTIAGSKLKEIFDKIHSLLSGKPVQSGGRSVSVTLNPQGLDFVQYKLAEKFVKQGEEEVASHHEAAFPIAVVASGIWELHPRVGDLILAHLHKKCPYSVPFYPTFKEGMALEDYQRMLGYQVKDSKVEQQDNFLKRMSGMIRLYAAIIQLRWPYGNRQEIHPHGLNHGWRWLAQILNMEPLSDVTATLLFDFLEVCGNALMKQYQVQFWKMLILIKEDYFPRIEAITSSGQMGSFIRLKQFLEKCLQHKDIPVPKGFLTSSFWRS
